Patent US20030113320A1 (BURNHAM INSTITUTE, published 2003)
Where no end group is shown, it is not given here.

B1: CARAC peptide (SEQ ID NO:221) (peptide)
peptide: CARAC
notes: also called negative control CARAC; control peptide
B2: CNGRC cyclic peptide (SEQ ID NO:8) (peptide)
peptide: CNGRC
modifications: also: cyclized (cyclic peptide), ring type not given here
notes: also called NGR cyclic peptide; soluble CNGRC peptide

Legend:
[1] = target: T1, CD13/aminopeptidase N (CD13/APN), isolated from octylglucoside cell extracts (Homo sapiens (Human), UniProt P15144 2-967); assay: peptide affinity chromatography of cell extracts
T1 construct: The source cell lines are human; also called NGR receptor; immuno-isolated CD13
T1 sequence (P15144 2-967 R86Q limits assumed): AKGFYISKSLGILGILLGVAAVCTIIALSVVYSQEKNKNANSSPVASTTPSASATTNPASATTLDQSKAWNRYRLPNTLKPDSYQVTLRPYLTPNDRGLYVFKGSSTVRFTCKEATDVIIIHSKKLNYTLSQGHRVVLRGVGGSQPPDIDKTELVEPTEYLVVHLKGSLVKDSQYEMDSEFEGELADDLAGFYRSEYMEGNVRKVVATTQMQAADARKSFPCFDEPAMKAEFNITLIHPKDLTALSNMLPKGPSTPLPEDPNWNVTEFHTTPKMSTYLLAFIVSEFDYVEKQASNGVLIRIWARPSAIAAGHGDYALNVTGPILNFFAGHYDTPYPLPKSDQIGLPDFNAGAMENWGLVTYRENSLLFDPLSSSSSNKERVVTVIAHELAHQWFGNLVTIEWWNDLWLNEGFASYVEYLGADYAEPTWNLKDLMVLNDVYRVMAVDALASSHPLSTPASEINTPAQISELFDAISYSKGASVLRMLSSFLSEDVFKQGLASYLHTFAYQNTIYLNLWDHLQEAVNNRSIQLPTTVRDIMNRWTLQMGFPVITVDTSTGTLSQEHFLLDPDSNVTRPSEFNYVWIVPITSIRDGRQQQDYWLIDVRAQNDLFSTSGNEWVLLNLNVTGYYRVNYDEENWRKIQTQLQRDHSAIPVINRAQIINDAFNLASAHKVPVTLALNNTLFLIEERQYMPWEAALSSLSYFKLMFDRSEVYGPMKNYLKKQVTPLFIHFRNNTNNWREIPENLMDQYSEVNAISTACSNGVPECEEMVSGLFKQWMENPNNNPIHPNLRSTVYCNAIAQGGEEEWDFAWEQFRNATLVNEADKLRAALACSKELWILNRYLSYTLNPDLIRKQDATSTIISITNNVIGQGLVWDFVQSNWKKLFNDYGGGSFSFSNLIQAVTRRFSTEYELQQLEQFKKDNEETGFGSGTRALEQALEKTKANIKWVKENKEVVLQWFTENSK
Experimental: (§1) To further characterize the interaction of CD13/APN with the NGR peptide, affinity chromatography on the CNGRC peptide was performed. The column was prepared by coupling the CNGRC peptide to SEPHAROSE (Pharmacia; Piscataway N.J.). Elution was effected with soluble CNGRC peptide. Experiments were performed using HL-60 cell extracts because they are known to express CD13/APN without other proteases that could interfere in the APN assay (Xu et al., supra (1997)). Thus, in HL-60 cell extracts, all detectable cell surface enzymatic activity is inhibitable by anti-CD13 blocking antibodies, assuring specificity. Extracts of Molt-4 and MDA-MB-435 cells transfected with CD13/APN were also characterized by using affinity chromatography, with extracts of the mock transfected counterparts used as negative controls.
(§2) Briefly, CD13 was detected by testing aliquots of each fraction for the presence of CD13 immunoreactivity in ELISA with the anti-CD13 monoclonal antibody WM15, using normal mouse IgG as a negative control. The fractions were also analyzed for CD13 enzymatic activity using AlapNA as the substrate. […] Furthermore, no CD13 activity was recovered from the CNGRC column when the extract fractionated was derived from CD13-negative cells (see FIG. 6).

[2] = target: T1, CD13/aminopeptidase N (CD13/APN), …; assay: affinity chromatography of Molt-4/CD13, MDA-MB-435/CD13 or HL-60 cell extracts on CNGRC-SEPHAROSE
Experimental: as §1, §2

[3] = target: T2, CD13/aminopeptidase N on CD13-transfected cells (Molt-4/CD13, MDA-MB-435/CD13) (Homo sapiens (Human), UniProt P15144 2-967); assay: competition with CNGRC phage on CD13-transfected cells; peptide at 250 and 500 ug/ml
T2 construct: The parental lines express no endogenous CD13; The transfected construct is not described; also called CD13/APN
T2 sequence (P15144 2-967 R86Q limits assumed): as above
Experimental: The CNGRC phage binds specifically to cells transfected with CD13. […] Briefly, mock transfected Molt-4 cells (“Molt-4/mock”) and cells transfected with CD13 (“Molt-4/CD13”) were incubated with CNGRC (SEQ ID NO:8) phage or with control Fd phage lacking an insert (2× 10^9 transducing units (TU) per sample). […] After extensive washing, bound phage were quantitated by infection of bacteria as described above.

Binder	binding result [1]	binding result [2]	binding result [3]
B1	no binding	–	–
B2	–	binds	binds
